Test results reported in patent publication US7008922 (RIJKSUNIVERSITEIT TE LEIDEN, dated 2006).

Biological target: purified HLA-B7 (human)
Test: competition with iodinated … for purified HLA-B7

Binder	IC50
SPSVDKARAEL (also called H-Y peptide; peptide 1171) [SMCY peptide SPSVDKARAEL]	34 nM
SPAVDKAQAEL (Synthetic, HPLC-purified peptide; Differs from the SMCY peptide by A for S at position 3 and Q for R at position 8; also called peptide derived from the X chromosomal homolog SMCX (XE169)) [SMCX peptide SPAVDKAQAEL]	140 nM
